Data from the nanobody polyreactivity screen of Harvey et al. (2022).

Assay: yeast display, Sf9 membrane polyspecificity reagent, FACS + sequencing; frameworks hold sequencing errors
How it was run: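 After 36–48 hours of galactose induction, yeast (Saccharomyces cerevisiae BJ5465) displaying a synthetic nanobody library were stained at 4 °C for 1 hour with 10% biotinylated, detergent-solubilized Sf9 membrane reagent. Streptavidin microbeads enriched the stained cells before FACS sorting into low and high (top ~1%) gates on anti-HA and streptavidin fluorescence. Each clone's polyreactivity label reflects its gate of origin.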

Row | Sequence | polyreactivity (PSR sort gate)
1 | QVQLVESGGGLVQAGGSLRLSCAASGSTFRDYAMGWYRQAPGTERELVAAITSGGSTNYADSVKGRFTISRDNAKNSVYLQMISLKPEDTAVYYCNARYAGWYTPWGRQSVYSDDYWGQGTQVTVSS | low polyreactivity
2 | QVQLVESGGGLVQAGGSLRLSCAASGSTFRDYDMGWYRQAPGKERELVAAISLSGGRTHYADSVKGRFTISRDNAKNTVYLQMNSLKPEDTAVYYCAARNTGPVQYYYWGQGTQVTVSS | low polyreactivity
3 | QVQLVESGGGLVQAGGSLRLSCAASGSTFRFNTMGWYRQAPGKERELVAAITRGGSTNYADSVKGRFTISRDNAKNTVYLQMNSLKPEDTAVYYCNTTRYSVRKYDYWGQGTQVTVSS | low polyreactivity
4 | QVQLVESGGGLVQAGGSLRLSCAASGSTFRFYAMGWYRQAPGKERELVAGITGSGDSTYYADSVKGRFTISRDNAKNTVYLQMNSLKPEDTAVYYCNKRFLFAGFDYLGQGTQVTVSS | low polyreactivity
5 | QVQLVESGGGLVQAGGSLRLSCAASGSTFRGNAMGWYRQAPGKERELVAGISGSGGRTYYADSVKGRFTISRDNAKNTVYLQMNSLKPEDTAVYYCAARSTVYEYFYYRGWWEYYYWGQGTQVTVSS | low polyreactivity
6 | QVQLVESGGGLVQAGGSLRLSCAASGSTFRGNAMGWYRQAPGKERELVATISRSNGGSTYYADSVKGRFTISRDIAKNTVYLQMNSLKPEDTEVYYCAARSYIGISTYGYWGLGTQVTVSS | low polyreactivity
7 | QVQLVESGGGLVQAGGSLRLSCAASGSTFRGNAMGWYRQAPGNEREFVAAITVSGGSTYYADSVKGRFTSSRDNAKNTVYLQMISLKPEDTAVYYCAGLTRGRGYDSWGQGTQVTVSS | high polyreactivity
8 | QVQLVESGGGLVQAGGSLRLSCAASGSTFRGYAMGWSRQAPGKERELVATITSGGSTKFADSVKGRVTISRDNAKNTVYLQMNSLKPEDTAVYYFNAGPRSWSPYRHWVDFWGQGTQVTVSS | low polyreactivity
9 | QVQLVESGGGLVQAGGSLRLSCAASGSTFRGYAMGWYRQAPGKERELVAAISWSGGSTYYADSVKGRFTISRDNAKNTVYLQMNSLKPEDTAVYYCNAVLYRFAYNYWGQGTQVTVSS | low polyreactivity
10 | QVQLVESGGGLVQAGGSLRLSCAASGSTFRGYVMGWYRQAPGKERELVAAITWGGGRTYYADSVKGRFTISRDNAKNTVYLQMNSLKPEDTAVYYCAARVRGQGSYQFGYWGQGTQVTVSS | high polyreactivity
11 | QVQLVESGGGLVQAGGSLRLSCAASGSTFRGYVMGWYRQAPGKERELVASINWDGGSTYYADSVKGRFTISRDNAKNTVYLQMNSLKPEDTAVYYCAARRVGGGFYTWRNPAYEYWGQGTQVTVSS | high polyreactivity
12 | QVQLVESGGGLVQAGGSLRLSCAASGSTFRIYAMGWYRQAPGKERELVAAISSGGRTNYADSVKGRFTISRDNAKNNVYLQMNSLKPEDTAVYYCNAVFLPTYHFDYWGQGTQVTVSS | high polyreactivity
13 | QVQLVESGGGLVQAGGSLRLSCAASGSTFRIYAMGWYRQAPGKERELVAAISWSSGSTYYADSVKGRFTISRDNAKNTVYFQMNSLKPEDTAVYYCATYARRSGYYYWGQGTQVTVSS | high polyreactivity
14 | QVQLVESGGGLVQAGGSLRLSCAASGSTFRIYAMGWYRQAPGKERELVAAITSGGDTNYADSVKGRFTISRDNAKNTVYLQMNSLKPEDTAVYYCAADGHSVYTELDYWGQGTQVTVSS | low polyreactivity
15 | QVQLVESGGGLVQAGGSLRLSCAASGSTFRKYAMGWYRQAPGKEREFVAAITWSTGTTYYADSVKGRFTISRDNAKNNVYLQMNSLKPEDTAVYYSAADSQPPHELDESIEHESWGQGTQVTVSS | low polyreactivity
16 | QVQLVESGGGLVQAGGSLRLSCAASGSTFRKYAMGWYRQAPGKEREFVAAITWSTGTTYYADSVKGRFTISRDNAKNTVYLQMNSLIPEDTAVYYCAADSQPPHELYESIEHESWGQGTQVTVSS | low polyreactivity

Row | Sequence | polyreactivity (PSR sort gate)
17 | QVQLVESGGGLVQAGGSLRLSCAASGSTFRLYAMGWYRQAPGKERELVAAISSRGGTTYYADSVKGRFTISRDNAKNTVYLQMNSLKPEDTAVYYCAAPRASQYGDDYWGQGTQVTVSS | high polyreactivity
18 | QVQLVESGGGLVQAGGSLRLSCAASGSTFRNNAMGWYRQAPGKERELVAAISRGGGSTYYADSVKGRFTISRDNAKNTVYLQMNSLKPEDTAVYYCARRPTGIYDYWGQGTQVTVSS | high polyreactivity
19 | QVQLVESGGGLVQAGGSLRLSCAASGSTFRNYAMGWYRQAPGKERELVAAISGSGGRTNYADSVKGRFTISRDNAKNTVYLQMNSLKPEDNAVYYCNARFPDWALSEISHSTTYGYWGQGTQVTVSS | low polyreactivity
20 | QVQLVESGGGLVQAGGSLRLSCAASGSTFRNYAMGWYRQAPGKERELVAAISGSGGRTNYADSVKGRFTISRDNAKNTVYLQMNSLKPEDTAVYYCNGRFPDWALSEISHSTTYGYWGQGTQVTVSS | low polyreactivity
21 | QVQLVESGGGLVQAGGSLRLSCAASGSTFRNYAMGWYRQAPGKERELVAAISRGDGTYYADSVKGRFTISRDNAKNTVYLQMNSLKPEDTAVYYCAAAYRGRQNPMGYWGQGTQVTVSS | high polyreactivity
22 | QVQLVESGGGLVQAGGSLRLSCAASGSTFRNYSMGWYRQAPGKERELVAAISGSGGRTNYADSVKGRFTISRDNAKNTVYLQMNSLKPEDTAVYYCNADGGPGYPRAYDYWGQGTQVTVSS | low polyreactivity
23 | QVQLVESGGGLVQAGGSLRLSCAASGSTFRPNAMGWYRQAPGKERELVAGISLNGTSTYYADSVKGRFTISRDNAKNTVYLQMNSLKPEDTAVYYCAADYQCGRGAEPYVFFDPEMDYWGQGTQVTVSS | low polyreactivity
24 | QVQLVESGGGLVQAGGSLRLSCAASGSTFRPSAMGWYRQAPGKERELVAAIRSGRTSYADSVKGRFTISRDYAKNTVYLQMNSLKPEDTAVYYCAKASRGGYYWGQGTQVTVSS | high polyreactivity
25 | QVQLVESGGGLVQAGGSLRLSCAASGSTFRPYAMGGYRQAPGKERELVARITGSGDSTYYADSVKGRFTISRDNAKNTVYLQMNSLKPEDTAVYYCAREFVFSLSGFDYWGQGTQVSVSS | low polyreactivity
26 | QVQLVESGGGLVQAGGSLRLSCAASGSTFRPYAMGWYRPAPGKEREFVASISNTGGSTSYADSVKGRFTISRDNAMNTVYFQMNSLKPEDTAVYYCAARFGYRPWYRMDYWGQGTQVAVSS | high polyreactivity
27 | QVQLVESGGGLVQAGGSLRLSCAASGSTFRPYAMGWYRQAPGKERELVARITKNGGSTYYADSVKGRFTISRDNAKNTVYLQMNSLKPEDTEVYYCAVRAWDPYTGKSDYWGQGTQVTVSS | low polyreactivity
28 | QVQLVESGGGLVQAGGSLRLSCAASGSTFRQYAMGWYRQAPGKERELVAAISTNGVSTRYADSVKGRFTISRDNAKNTVYLQMNSLKPEDTAVYSCAAGYRKSYTYYRYDYWGQGTQVTVSS | high polyreactivity
29 | QVQLVESGGGLVQAGGSLRLSCAASGSTFRQYAMGWYRQAPGKERELVAATTSSGGSTYYADSVKGRFTISRDNAKNTVYLQMNSLKPDDTAVYYCNVDGRSDGDDYWGQGTHVTVSS | low polyreactivity
30 | QVQLVESGGGLVQAGGSLRLSCAASGSTFRQYTMGWYRQAPGKERELVAAISRGCGNTYYADSVKGRFTISRDNAKNTVYLQMNSLKPEDTAVYYCAADRSYSGDSWGQGTQVTVSS | high polyreactivity
31 | QVQLVESGGGLVQAGGSLRLSCAASGSTFRRNAMGWYRQAPGKERELVAAITWRGGSTSYADSVKGRFTISRDNAKNTVYLQMNSLKPEDTGVYYCAAVKGHSQVLSYGYWGQGTQVTVSS | low polyreactivity
